Measurements as given in patent publication US11325966.

Key:
Test in all cases: cell-based or functional assay
[1] = target: HIV-1 Env of pseudovirus 231966.c02 (HIV-1)
[2] = target: HIV-1 Env of pseudovirus 235-47 (HIV-1)
[3] = target: HIV-1 Env of pseudovirus 3016.v5.c45 (HIV-1)
[4] = target: HIV-1 Env of pseudovirus 3103.v3.c10 (HIV-1)
[5] = target: HIV-1 Env of pseudovirus 3817.v2.c59 (HIV-1)
[6] = target: HIV-1 Env of pseudovirus 6244_13_B5_4576 (HIV-1)
[7] = target: HIV-1 Env of pseudovirus 6480.v4.c25 (HIV-1)
[8] = target: HIV-1 Env of pseudovirus 6535.3 (HIV-1)
[9] = target: HIV-1 Env of pseudovirus 6545.v4.c1 (HIV-1)
[10] = target: HIV-1 Env of pseudovirus 6952.v1.c20 (HIV-1)
[11] = target: HIV-1 Env of pseudovirus A07412M1.vrc12 (HIV-1)
[12] = target: HIV-1 Env of pseudovirus BJOX010000.06.2 (HIV-1)
[13] = target: HIV-1 Env of pseudovirus BJOX015000.11.5 (HIV-1)
[14] = target: HIV-1 Env of pseudovirus C1080.c03 (HIV-1)
[15] = target: HIV-1 Env of pseudovirus C2101.c01 (HIV-1)
[16] = target: HIV-1 Env of pseudovirus CAP210.2.00.E8 (HIV-1)
[17] = target: HIV-1 Env of pseudovirus CAP45.2.00.G3 (HIV-1)
[18] = target: HIV-1 Env of pseudovirus CNE20 (HIV-1)
[19] = target: HIV-1 Env of pseudovirus CNE8 (HIV-1)
[20] = target: HIV-1 Env of pseudovirus Du156.12 (HIV-1)
[21] = target: HIV-1 Env of pseudovirus HIV-0013095-2.11 (HIV-1)
[22] = target: HIV-1 Env of pseudovirus HIV-001428-2.42 (HIV-1)
[23] = target: HIV-1 Env of pseudovirus MS208.A1 (HIV-1)
[24] = target: HIV-1 Env of pseudovirus P0402_c2_11 (HIV-1)
[25] = target: HIV-1 Env of pseudovirus PVO.4 (HIV-1)
[26] = target: HIV-1 Env of pseudovirus Q23.17 (HIV-1)
[27] = target: HIV-1 Env of pseudovirus Q842.d12 (HIV-1)
[28] = target: HIV-1 Env of pseudovirus QH0692.42 (HIV-1)
[29] = target: HIV-1 Env of pseudovirus R1166.c01 (HIV-1)
[30] = target: HIV-1 Env of pseudovirus REJO4541.67 (HIV-1)
[31] = target: HIV-1 Env of pseudovirus SC05_8C11_2344 (HIV-1)
[32] = target: HIV-1 Env of pseudovirus SC422661.8 (HIV-1)
[33] = target: HIV-1 Env of pseudovirus T251-18 (HIV-1)
[34] = target: HIV-1 Env of pseudovirus WEAU_d15_410_787 (HIV-1)
[35] = target: HIV-1 Env of pseudovirus X1193_c1 (HIV-1)
[36] = target: HIV-1 Env of pseudovirus X1632_S2_B10 (HIV-1)
[37] = target: HIV-1 Env of pseudovirus X2088_c9 (HIV-1)
[38] = target: HIV-1 Env of pseudovirus X2131_C1_B5 (HIV-1)
[39] = target: HIV-1 Env of pseudovirus ZM233M.PB6 (HIV-1)
[40] = target: HIV-1 Env of pseudovirus ZM53M.PB12 (HIV-1)

BG18 IgG (354BG18) (antibody)
IC50 in TZM-bl assay [1]: > 30 µg/mL
IC80 in TZM-bl assay [1]: > 30 µg/mL
IC50 in TZM-bl assay [2]: 0.005 µg/mL
IC80 in TZM-bl assay [2]: 0.017 µg/mL
IC50 in TZM-bl assay [3]: > 30 µg/mL
IC80 in TZM-bl assay [3]: > 30 µg/mL
IC50 in TZM-bl assay [4]: 0.002 µg/mL
IC80 in TZM-bl assay [4]: 0.005 µg/mL
IC50 in TZM-bl assay [5]: 0.219 µg/mL
IC80 in TZM-bl assay [5]: 1.06 µg/mL
IC50 in TZM-bl assay [6]: 0.011 µg/mL
IC80 in TZM-bl assay [6]: 0.049 µg/mL
IC50 in TZM-bl assay [7]: 0.016 µg/mL
IC80 in TZM-bl assay [7]: 0.116 µg/mL
IC80 in TZM-bl assay [8]: 0.005 µg/mL
IC50 in TZM-bl assay [9]: > 30 µg/mL
IC80 in TZM-bl assay [9]: > 30 µg/mL
IC50 in TZM-bl assay [10]: 0.005 µg/mL
IC80 in TZM-bl assay [10]: 0.011 µg/mL
IC50 in TZM-bl assay [11]: 0.081 µg/mL
IC80 in TZM-bl assay [11]: 1.72 µg/mL
IC50 in TZM-bl assay [12]: > 30 µg/mL
IC80 in TZM-bl assay [12]: > 30 µg/mL
IC50 in TZM-bl assay [13]: > 30 µg/mL
IC80 in TZM-bl assay [13]: > 30 µg/mL
IC50 in TZM-bl assay [14]: 5.37 µg/mL
IC80 in TZM-bl assay [14]: > 30 µg/mL
IC50 in TZM-bl assay [15]: > 30 µg/mL
IC80 in TZM-bl assay [15]: > 30 µg/mL
IC50 in TZM-bl assay [16]: 3.47 µg/mL
IC80 in TZM-bl assay [16]: 10.7 µg/mL
IC50 in TZM-bl assay [17]: > 30 µg/mL
IC80 in TZM-bl assay [17]: > 30 µg/mL
IC50 in TZM-bl assay [18]: 0.002 µg/mL
IC80 in TZM-bl assay [18]: 0.006 µg/mL
IC50 in TZM-bl assay [19]: > 30 µg/mL
IC80 in TZM-bl assay [19]: > 30 µg/mL
IC50 in TZM-bl assay [20]: 0.003 µg/mL
IC80 in TZM-bl assay [20]: 0.01 µg/mL
IC50 in TZM-bl assay [21]: 10.5 µg/mL
IC80 in TZM-bl assay [21]: 30 µg/mL
IC50 in TZM-bl assay [22]: 0.004 µg/mL
IC80 in TZM-bl assay [22]: 0.021 µg/mL
IC50 in TZM-bl assay [23]: > 30 µg/mL
IC80 in TZM-bl assay [23]: > 30 µg/mL
IC50 in TZM-bl assay [24]: 0.005 µg/mL
IC80 in TZM-bl assay [24]: 0.029 µg/mL
IC50 in TZM-bl assay [25]: 0.003 µg/mL
IC80 in TZM-bl assay [25]: 0.013 µg/mL
IC50 in TZM-bl assay [26]: 0.006 µg/mL
IC80 in TZM-bl assay [26]: 0.02 µg/mL
IC50 in TZM-bl assay [27]: 14 µg/mL
IC80 in TZM-bl assay [27]: > 30 µg/mL
IC50 in TZM-bl assay [28]: 0.013 µg/mL
IC80 in TZM-bl assay [28]: 0.042 µg/mL
IC50 in TZM-bl assay [29]: > 30 µg/mL
IC80 in TZM-bl assay [29]: > 30 µg/mL
IC50 in TZM-bl assay [30]: > 30 µg/mL
IC80 in TZM-bl assay [30]: > 30 µg/mL
IC50 in TZM-bl assay [31]: 0.003 µg/mL
IC80 in TZM-bl assay [31]: 0.016 µg/mL
IC50 in TZM-bl assay [32]: 0.005 µg/mL
IC80 in TZM-bl assay [32]: 0.021 µg/mL
IC50 in TZM-bl assay [33]: 0.086 µg/mL
IC80 in TZM-bl assay [33]: 0.328 µg/mL
IC50 in TZM-bl assay [34]: 0.003 µg/mL
IC80 in TZM-bl assay [34]: 0.012 µg/mL
IC50 in TZM-bl assay [35]: 0.005 µg/mL
IC80 in TZM-bl assay [35]: 0.022 µg/mL
IC50 in TZM-bl assay [36]: > 30 µg/mL
IC80 in TZM-bl assay [36]: > 30 µg/mL
IC50 in TZM-bl assay [37]: 0.004 µg/mL
IC80 in TZM-bl assay [37]: 0.009 µg/mL
IC50 in TZM-bl assay [38]: 0.002 µg/mL
IC80 in TZM-bl assay [38]: 0.008 µg/mL
IC50 in TZM-bl assay [39]: 2.87 µg/mL
IC80 in TZM-bl assay [39]: 29.8 µg/mL
IC50 in TZM-bl assay [40]: > 30 µg/mL
IC80 in TZM-bl assay [40]: > 30 µg/mL

PGT121 (antibody)
IC50 in TZM-bl assay [1]: > 10 µg/mL
IC80 in TZM-bl assay [1]: > 10 µg/mL
IC50 in TZM-bl assay [2]: 0.259 µg/mL
IC80 in TZM-bl assay [2]: 1.6 µg/mL
IC50 in TZM-bl assay [3]: > 10 µg/mL
IC80 in TZM-bl assay [3]: > 10 µg/mL
IC50 in TZM-bl assay [4]: 0.024 µg/mL
IC80 in TZM-bl assay [4]: 0.073 µg/mL
IC50 in TZM-bl assay [5]: > 10 µg/mL
IC80 in TZM-bl assay [5]: > 10 µg/mL
IC50 in TZM-bl assay [6]: 0.172 µg/mL
IC80 in TZM-bl assay [6]: 1.47 µg/mL
IC50 in TZM-bl assay [7]: 0.008 µg/mL
IC50 in TZM-bl assay [8]: 0.003 µg/mL
IC80 in TZM-bl assay [8]: 0.01 µg/mL
IC50 in TZM-bl assay [9]: > 10 µg/mL
IC80 in TZM-bl assay [9]: > 10 µg/mL
IC80 in TZM-bl assay [10]: 0.348 µg/mL
IC50 in TZM-bl assay [11]: 0.034 µg/mL
IC80 in TZM-bl assay [11]: 0.255 µg/mL
IC50 in TZM-bl assay [12]: > 10 µg/mL
IC80 in TZM-bl assay [12]: > 10 µg/mL
IC50 in TZM-bl assay [13]: > 10 µg/mL
IC80 in TZM-bl assay [13]: > 10 µg/mL
IC50 in TZM-bl assay [14]: > 10 µg/mL
IC80 in TZM-bl assay [14]: > 10 µg/mL
IC50 in TZM-bl assay [15]: > 10 µg/mL
IC80 in TZM-bl assay [15]: > 10 µg/mL
IC50 in TZM-bl assay [16]: > 10 µg/mL
IC80 in TZM-bl assay [16]: > 10 µg/mL
IC50 in TZM-bl assay [17]: 1.3 µg/mL
IC80 in TZM-bl assay [17]: > 10 µg/mL
IC50 in TZM-bl assay [18]: 0.003 µg/mL
IC80 in TZM-bl assay [18]: 0.006 µg/mL
IC50 in TZM-bl assay [19]: > 10 µg/mL
IC80 in TZM-bl assay [19]: > 10 µg/mL
IC50 in TZM-bl assay [20]: 0.006 µg/mL
IC80 in TZM-bl assay [20]: 0.019 µg/mL
IC50 in TZM-bl assay [21]: > 10 µg/mL
IC80 in TZM-bl assay [21]: > 10 µg/mL
IC50 in TZM-bl assay [22]: 0.02 µg/mL
IC80 in TZM-bl assay [22]: 0.126 µg/mL
IC50 in TZM-bl assay [23]: > 10 µg/mL
IC80 in TZM-bl assay [23]: > 10 µg/mL
IC50 in TZM-bl assay [24]: 0.007 µg/mL
IC50 in TZM-bl assay [25]: 0.094 µg/mL
IC80 in TZM-bl assay [25]: 0.45 µg/mL
IC50 in TZM-bl assay [26]: 0.005 µg/mL
IC80 in TZM-bl assay [26]: 0.017 µg/mL
IC50 in TZM-bl assay [27]: 0.01 µg/mL
IC80 in TZM-bl assay [27]: 0.037 µg/mL
IC50 in TZM-bl assay [28]: 0.498 µg/mL
IC80 in TZM-bl assay [28]: 8.51 µg/mL
IC50 in TZM-bl assay [29]: > 10 µg/mL
IC80 in TZM-bl assay [29]: > 10 µg/mL
IC50 in TZM-bl assay [30]: > 10 µg/mL
IC80 in TZM-bl assay [30]: > 10 µg/mL
IC50 in TZM-bl assay [31]: 0.03 µg/mL
IC80 in TZM-bl assay [31]: 0.108 µg/mL
IC50 in TZM-bl assay [32]: 0.079 µg/mL
IC80 in TZM-bl assay [32]: 0.373 µg/mL
IC50 in TZM-bl assay [33]: 5.18 µg/mL
IC80 in TZM-bl assay [33]: > 10 µg/mL
IC50 in TZM-bl assay [34]: 0.017 µg/mL
IC80 in TZM-bl assay [34]: 0.062 µg/mL
IC80 in TZM-bl assay [35]: 0.088 µg/mL
IC50 in TZM-bl assay [36]: > 10 µg/mL
IC80 in TZM-bl assay [36]: > 10 µg/mL
IC50 in TZM-bl assay [37]: 0.007 µg/mL
IC80 in TZM-bl assay [38]: 0.037 µg/mL
IC50 in TZM-bl assay [39]: 2.81 µg/mL
IC80 in TZM-bl assay [39]: > 10 µg/mL
IC50 in TZM-bl assay [40]: 0.001 µg/mL
IC80 in TZM-bl assay [40]: 0.005 µg/mL
